Measurements as given in paper PMC9445180, “Allosteric inhibition of HTRA1 activity by a conformational lock mechanism to treat age-related macular degeneration” (Nature Communications, 2022).

Assays:
[1] = molecular target: T1, HTRA3^PD/PDZ (HTRA3 protease/PDZ domain, L130-M453) (Homo sapiens, UniProt P83110); experiment: SPR; His6-tagged HTRA proteins (about 200 RU) captured with the His-capture kit on a CM5 chip, Fab15H6.v4 as analyte, single-cycle kinetics, three-fold dilutions from 1 nM or 1 μM; absence of binding verified with 3 μM Fab; Biacore S200, 25 °C, HBS-EP; 1:1 Langmuir model; conditions: both partners purified
T1 construct: human HTRA3 protease and PDZ domains, L130-M453; also called wildtype HTRA3; source: E. coli, purified (Ni-NTA, SEC); not shown: His6, N-terminal, kept

[2] = molecular target: T2, HTRA1^PD (human HTRA1 protease domain, D161-K379) (human, UniProt Q92743); experiment: as above; conditions: both partners purified
T2 construct: human HTRA1 protease domain, D161-K379, 24 kDa; His6 tag is TEV or thrombin cleavable; captured by it in SPR; also called wildtype HTRA1^PD; active HTRA1^PD; source: E. coli, purified (Ni-NTA, SEC); not shown: His6, N-terminal, kept

[3] = molecular target: T3, HTRA2^PD/PDZ (HTRA2 protease/PDZ domain, A134-E458) (human, UniProt O43464); experiment: as above; conditions: both partners purified
T3 construct: human HTRA2 protease and PDZ domains, A134-E458; also called wildtype HTRA2; source: E. coli, purified (Ni-NTA, SEC); not shown: His6, N-terminal, kept

[4] = molecular target: T4, HTRA1^FL/SA (catalytically inactive S328A mutant of full-length HTRA1) (human, UniProt Q92743, S328A); experiment: SEC; HTRA1 proteins mixed with Fab15H6.v4 (1:2 molar ratio, 30 min on ice); Superdex 200 Increase 3.2/300; 200 mM NaCl, 20 mM HEPES pH 7.5, 0.25% CHAPS; size against protein standards; conditions: both partners purified
T4 construct: human HTRA1, Q23-P480, with S328A; source: Trichoplusia ni cells, purified from the medium (Ni-NTA, SEC)

[5] = molecular target: T2, HTRA1^PD (human HTRA1 protease domain, …); experiment: as above; conditions: both partners purified
[6] = molecular target: T5, HTRA1^PD/SA (catalytically inactive S328A mutant of the HTRA1 protease domain) (human, UniProt Q92743, S328A); experiment: as above; conditions: both partners purified
T5 construct: human HTRA1 protease domain, D161-K379, with S328A; source: E. coli, purified (Ni-NTA, SEC)

[7] = molecular target: T6, HTRA1 LoopA wildtype peptide (Homo sapiens); experiment: SPR; Fab15H6.v4 (1000 RU) immobilised on a CM5 chip by amine coupling, synthetic LoopA peptides as analytes, single-cycle kinetics, three-fold dilutions from 10 nM (HTRA1 peptides) or 3 μM (HTRA2, HTRA3, HTRA4 peptides); 25 °C, HBS-EP; conditions: both partners purified
T6 construct: LoopA of human HTRA1, residues 190-201; also called HTRA1-LoopA peptide; LoopA peptide; source: synthetic peptide (Abclonal for SPR; NeoBiolab for the crystal)
T6 chain: RKLPFSKREVPV

[8] = molecular target: T7, HTRA4 LoopA wildtype peptide (Homo sapiens); experiment: as above; conditions: both partners purified
T7 construct: LoopA of human HTRA4, residues 188-199; also called LoopA peptide of HTRA4; source: synthetic peptide (Abclonal)
T7 chain: GRLLHGSRLVPV

[9] = molecular target: T8, HTRA2 LoopA wildtype peptide (Homo sapiens); experiment: as above; conditions: both partners purified
T8 construct: LoopA of human HTRA2, residues 168-179; also called LoopA peptide of HTRA2; source: synthetic peptide (Abclonal)
T8 chain: DRHPFLGREVPI

[10] = molecular target: T9, HTRA3 LoopA wildtype peptide (Homo sapiens); experiment: as above; conditions: both partners purified
T9 construct: LoopA of human HTRA3, residues 161-172; also called LoopA peptide of HTRA3; source: synthetic peptide (Abclonal)
T9 chain: LRHPLFGRNVPL

[11] = molecular target: T2, HTRA1^PD (human HTRA1 protease domain, …); experiment: SPR; wildtype His6-tagged HTRA1^PD (about 200 RU) captured with the His-capture kit on a CM5 chip; scFv15H6.v4, Fab15H6.v4 and its mutants as analytes, single-cycle kinetics, three-fold dilutions from 10 nM or 1 μM; absence of binding confirmed up to 3 μM; 25 °C, HBS-EP; conditions: both partners purified
[12] = molecular target: the molecule itself; experiment: SEC; HTRA proteins and their LoopA deletion mutants alone; Superdex 200 Increase 3.2/300; 200 mM NaCl, 20 mM HEPES pH 7.5, 0.25% CHAPS; size against gel filtration standard

T1 sequence (P83110 130-453): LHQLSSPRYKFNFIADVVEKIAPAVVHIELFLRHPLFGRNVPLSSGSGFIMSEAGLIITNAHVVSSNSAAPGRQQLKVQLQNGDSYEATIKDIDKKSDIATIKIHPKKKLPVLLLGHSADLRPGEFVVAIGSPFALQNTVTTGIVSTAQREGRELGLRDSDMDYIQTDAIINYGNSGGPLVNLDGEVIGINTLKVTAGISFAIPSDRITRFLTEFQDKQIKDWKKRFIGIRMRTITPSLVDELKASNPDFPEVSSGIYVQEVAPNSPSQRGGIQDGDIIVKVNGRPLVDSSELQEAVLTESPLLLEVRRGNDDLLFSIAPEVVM

B1: Fab15H6.v4 (Fab, V domains shown)
VH: EVQLVQSGAEVKKPGASVKVSCKASGYKFTDSEMHWVRQAPGQGLEWIGGVDPETEGAAYNQKFKGRATITRDTSTSTAYLELSSLRSEDTAVYYCTRGYDYDYALDYWGQGTLVTVSS
VL: DIQMTQSPSSLSASVGDRVTITCRASSSVEFIHWYQQKPGKAPKPLISATSNLASGVPSRFSGSGSGTDFTLTISSLQPEDFATYYCQQWSSAPWTFGQGTKVEIK
notes: light chain of Fab15H6.v4; also called the Fab; source: expressed in Complete CRAP media with carbenicillin, purified (Protein G, SP Sepharose)
Which results are given for B1?
binding result [1]: no binding (tested: 3 μM Fab); Kd [2]: 0.12 nM; binding result [3]: no binding (tested: 3 μM Fab); stoichiometry N [4]: 3 Fab per HTRA1 trimer; stoichiometry N [5]: 3 Fab per HTRA1 trimer; stoichiometry N [6]: 3 Fab per HTRA1 trimer; Kd [7]: 0.77 nM; binding result [8]: no binding (tested: 3 μM); binding result [9]: no binding (tested: 3 μM); binding result [10]: no binding (tested: 3 μM)

B2: Fab15H6.v4 D52A (Fab, V domains shown)
VH: EVQLVQSGAEVKKPGASVKVSCKASGYKFTDSEMHWVRQAPGQGLEWIGGVAPETEGAAYNQKFKGRATITRDTSTSTAYLELSSLRSEDTAVYYCTRGYDYDYALDYWGQGTLVTVSS
VL: DIQMTQSPSSLSASVGDRVTITCRASSSVEFIHWYQQKPGKAPKPLISATSNLASGVPSRFSGSGSGTDFTLTISSLQPEDFATYYCQQWSSAPWTFGQGTKVEIK
notes: as the heavy chain of m1, with D52A; as the light chain of m1
How did the “fold affinity loss against Fab15H6.v4” value [11] turn out when B2 was run?
The value was 2000 fold.

B3: Fab15H6.v4 Y100A (Fab, V domains shown)
VH: EVQLVQSGAEVKKPGASVKVSCKASGYKFTDSEMHWVRQAPGQGLEWIGGVDPETEGAAYNQKFKGRATITRDTSTSTAYLELSSLRSEDTAVYYCTRGADYDYALDYWGQGTLVTVSS
VL: DIQMTQSPSSLSASVGDRVTITCRASSSVEFIHWYQQKPGKAPKPLISATSNLASGVPSRFSGSGSGTDFTLTISSLQPEDFATYYCQQWSSAPWTFGQGTKVEIK
notes: as the heavy chain of m1, with Y100A; as the light chain of m1
Which “fold affinity loss against Fab15H6.v4” value [11] does the source give for B3 here?
Its value is 200 fold.

B4: HTRA1^PD-ΔLoopA (domain or fragment)
chain: not shown
notes: human HTRA1 protease domain, D161-K379, entire LoopA replaced with the beta hairpin motif NG; also called HTRA1-ΔLoopA; HTRA1^PD-ΔLoop mutant; source: E. coli, purified (Ni-NTA, SEC); not shown: His6, N-terminal, kept
Which “stoichiometry N” value [12] does the source give for B4 here?
Its value is 3.

B5: HTRA2^PD/PDZ (HTRA2 protease/PDZ domain, A134-E458) (domain or fragment, human, UniProt O43464 134-458, looked up)
chain: AVPSPPPASPRSQYNFIADVVEKTAPAVVYIEILDRHPFLGREVPISNGSGFVVAADGLIVTNAHVVADRRRVRVRLLSGDTYEAVVTAVDPVADIATLRIQTKEPLPTLPLGRSADVRQGEFVVAMGSPFALQNTITSGIVSSAQRPARDLGLPQTNVEYIQTDAAIDFGNSGGPLVNLDGEVIGVNTMKVTAGISFAIPSDRLREFLHRGEKKNSSSGISGSQRRYIGVMMLTLSPSILAELQLREPSFPDVQHGVLIHKVILGSPAHRAGLRPGDVILAIGEQMVQNAEDVYEAVRTQSQLAVQIRRGRETLTLYVTPEVTE
notes: human HTRA2 protease and PDZ domains, A134-E458; also called wildtype HTRA2; source: E. coli, purified (Ni-NTA, SEC); not shown: His6, N-terminal, kept
For B5, which “stoichiometry N” value [12] is on record?
Its value is 3.

B6: scFv15H6.v4 (single chain Fv version of Fab15H6.v4) (scFv, V domains shown)
VH: EVQLVQSGAEVKKPGASVKVSCKASGYKFTDSEMHWVRQAPGQGLEWIGGVDPETEGAAYNQKFKGRATITRDTSTSTAYLELSSLRSEDTAVYYCTRGYDYDYALDYWGQGTLVTVSS
VL: DIQMTQSPSSLSASVGDRVTITCRASSSVEFIHWYQQKPGKAPKPLISATSNLASGVPSRFSGSGSGTDFTLTISSLQPEDFATYYCQQWSSAPWTFGQGTKVEIK
notes: variable domain of the light chain of m1, D1-K106; (GGGGS)4 linker; variable domain of the heavy chain of m1, E1-S119
For B6, which Kd [11] is on record?
The Kd was 9.4 nM.

B7: Fab15H6.v4 with all eight key paratope residues mutated to alanine (Fab, V domains shown)
VH: EVQLVQSGAEVKKPGASVKVSCKASGYKFAAAEMHWVRQAPGQGLEWIGGVAPETEGAAYNQKFKGRATITRDTSTSTAYLELSSLRSEDAAVYYCTRGAAADYALDYWGQGTLVTVSS
VL: DIQMTQSPSSLSASVGDRVTITCRASSSVEFIHWYQQKPGKAPKPLISATSNLASGVPSRFSGSGSGTDFTLTISSLQPEDFATYYCQQWSSAPWTFGQGTKVEIK
notes: as the heavy chain of m1, with eight paratope residues of the three CDR loops changed to alanine; as the light chain of m1
Does B7 bind [11]?
Result: no binding (tested: 3 μM)
